Series [1] deals with the molecule itself. The experiment in a line: self-assembly of trimers; negative-stain EM of E. coli pellet.
Series [2] concerns the molecule itself. The experiment in a line: self-assembly of fusion trimers; negative-stain EM.
Series [3] concerns the molecule itself. The experiment in a line: self-assembly of tetramers; negative-stain EM of E. coli pellet.
Series [4] concerns the molecule itself. As to the kind of experiment: self-assembly of fusion trimers; negative-stain TEM of E. coli pellet. How it is done: (§1) Synthetic genes of each fusion were obtained and protein was expressed in Escherichia coli cells using a standard T7 based expression vector (Table 2). The protein expression was verified by sodium dodecyl sulfate polyacrylamide gel electrophoresis (SDS-PAGE) after separation of the soluble and insoluble cell portions. Samples of observed protein in the cellular pellets were analyzed for array formation by negative-stain Transmission Electron Microscopy (TEM). […] It is worth noting that 5/7 of the remaining fusions either shared a similar sequence and unknown but potentially similar structures (2 unpublished binding proteins) or were either the same molecular weight or much larger than the p3Z-42 monomer protein (3 proteins between ˜25-35 kDa).

Series [5] deals with the molecule itself. The experiment in a line: self-assembly of fusion trimers; negative-stain EM of E. coli pellet. How it is done:
as §1
On the basis of these initial hits, the general properties of the proteins that crystallized, specifically molecular weight, were evaluated. 16 further fusions were identified based either on smaller molecular weight sizes (13 proteins between 9 and 13 kDa) or other important targets close to this molecular weight range (3 proteins between 14 and 17 kDa). These second screen fusions were genetically fused and checked for array formation as before. […]

Series [6] concerns the molecule itself. As to the kind of experiment: self-assembly of trimers; cell-free expression, negative-stain EM. How it is done: (A) Design p3Z_42 expressed using an in vitro expression kit. This negative-stain micrograph was made 4 hours after adding pure plasmid DNA of p3Z_42 to the kit components without purification. A Fourier transform is shown from a crystal in the micrograph showing the same P 3 2 1 lattice as visualized in p3Z_42 E. coli expression. (B) Fast dilution re-folded p4Z_9 protein. Large arrays form analogous to those seen from E. coli expressed protein. A Fourier transform is shown highlighting the square lattice. (C) Dialysis re-folded p4Z_9 protein. Large fibrous structures form with the same square array pattern as in E. coli expressed proteins. Fourier transform is shown highlighting the square repeat pattern. (D) Purified and concentrated protein from p6_9H soluble fractions. Arrays were not visualized at this point. […] (E) p6_9H array formation from material as in (d). These arrays formed after further concentration of protein as in (d) and heat application in a water bath. […] Fourier transform is shown with the same P 6 arrangement seen in the pellet sample. Scale bars=50 nm.

The values that follow come from patent US20160369264A1 (HOWARD HUGHES MEDICAL INSTITUTE, published 2016).

B1: p3Z_11 (designed binder)
chain: MEEVVLITVPSESVARIIAKALVASRLAACVNIVPGLTSIYRWQGSVVEDQELLLLVKTTTHAFPKLKHTVKIIHPYTVPEIVALPIAEGNREYLDWLRENTGLE
notes: Designed self-assembling protein; Expressed from pet29b in E. coli; also called design p3Z_11
B1: the binding result in series [1] is recorded as “binds”.

B2: p3Z-42 TDRD2 fusion (designed binder)
chain: MGSRSLQLDKLVNEMTQHYENSVPEDLTVHVGDIVAAPLPTNGSWYRARVLGTLENGNLDLYFVDFGDNGDCPLKDLRALRSDFLSLPFQAIECSGSGSGGMHNNRLQLSRLERVYQSEQAEKLLLAGVMLRDPARFDLRGSLTHGRDVEIDTNVIIEGNVSLGNRVKIGTGCVIKNSAIGDDCEISPYTVVEDAVLAAACTIGPFARLRPGAVLLEGAHVGNFVEMKKAVLGKGSKAGHLTYLGDAAIGDNVNIGAGTITCNYDGANKFTTIIGDDVFVGSDTQLVAPVSVGKGATIAAGTTVTRNVGANALAISRVPQTQKEGWRRPVKKK
Regarding B2, the binding result in series [2] is “binds”.

B3: p4Z_9 (designed binder)
chain: MEAVRAYELQLELQQIRTLRQSLELKAKELEYAAGIITSLKSERRIYRAFSDLLVEITKLEAIEHIARSIIVYVREIAKLAKRETEIMEELSKLRAPLSLE
notes: Designed self-assembling protein; tetramer (C4) that packs into a P 4 21 2 lattice; also called design p4Z_9
Turning to B3, the binding result in series [3] is on record as “binds”.

B4: p3Z-42 Ferrodoxin fusion (designed binder)
chain: MLTVEVEVKITADDENKAEEIVKRVIDEVEREVQKQYPNATITRTLTRDDGTVELRIKVKADTEEKAKSIIKLIEERIEEELRKRDPNATITRTVRTEVGSSWSGSGSGGMHNNRLQLSRLERVYQSEQAEKLLLAGVMLRDPARFDLRGSLTHGRDVEIDTNVIIEGNVSLGNRVKIGTGCVIKNSAIGDDCEISPYTVVEDAVLAAACTIGPFARLRPGAVLLEGAHVGNFVEMKKAVLGKGSKAGHLTYLGDAAIGDNVNIGAGTITCNYDGANKFTTIIGDDVFVGSDTQLVAPVSVGKGATIAAGTTVTRNVGANALAISRVPQTQKEGWRRPVKKK
For B4, the binding result in series [4] is given as “binds”.

B5: p3Z-42 Human Acylphosphatase fusion (designed binder)
chain: MAEGNTLISVDYEIFGKVQGVFFRKHTQAEGKKLGLVGWVQNTDRGTVQGQLQGPISKVRHMQEWLETRGSPKSHIDKANFNNEKVILKLDYSDFQIVKGSGSGSGGMHNNRLQLSRLERVYQSEQAEKLLLAGVMLRDPARFDLRGSLTHGRDVEIDTNVIIEGNVSLGNRVKIGTGCVIKNSAIGDDCEISPYTVVEDAVLAAACTIGPFARLRPGAVLLEGAHVGNFVEMKKAVLGKGSKAGHLTYLGDAAIGDNVNIGAGTITCNYDGANKFTTIIGDDVFVGSDTQLVAPVSVGKGATIAAGTTVTRNVGANALAISRVPQTQKEGWRRPVKKK
With B5, the binding result in series [5] is “binds”.

B6: p3Z_42 (designed binder)
chain: MHNNRLQLSRLERVYQSEQAEKLLLAGVMLRDPARFDLRGSLTHGRDVEIDTNVIIEGNVSLGNRVKIGTGCVIKNSAIGDDCEISPYTVVEDAVLAAACTIGPFARLRPGAVLLEGAHVGNFVEMKKAVLGKGSKAGHLTYLGDAAIGDNVNIGAGTITCNYDGANKFTTIIGDDVFVGSDTQLVAPVSVGKGATIAAGTTVTRNVGANALAISRVPQTQKEGWRRPVKKKLE
notes: Designed self-assembling protein; beta-helix trimer (C3) that packs into a P 3 2 1 lattice; Expressed from pet29b in E. coli or with a cell-free kit; also called design p3Z_42
With B6, the binding result in series [6] is reported as “binds”.
